# Results: the nanobody polyreactivity screen of Harvey et al. (2022)
# Assay: yeast display, Sf9 membrane polyspecificity reagent, FACS + sequencing; frameworks hold sequencing errors
# In short: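 Genes from sorted yeast were amplified by colony PCR, read by MiSeq 2 × 250 sequencing and filtered on CDR length. These cells carried a synthetic nanobody library in Saccharomyces cerevisiae BJ5465 and were sorted by FACS into low and high (top ~1%) gates on anti-HA and streptavidin fluorescence. Polyreactivity is labelled according to the gate of origin.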
row,Sequence,polyreactivity (PSR sort gate)
1,QVQRVESGGALVQAGGSHRLSCAASGSIFYAYAMGWYRLAPGKERELVAAIRSSDSRTYYADSVKGRFTISRDNAKKTVYLQMNCLKPEETAVYYCAAEGSRNVKFDYCGQGTQVTVSS,high polyreactivity
2,QVEIVESGGGLVQAGGSLRLSCAASGSIFRWNAMGWYRQAPGKERELVAAISKRGTNTYYADSVKCRFTISRDNAKNTVYLQMNSLKPEDTAVYYCNAQGHRQNGLGDYWGQGTQVTVSS,high polyreactivity
3,QVQLVESGGGLVQAGGSLRLSCAASGYTFSYNTMGWYRQAPGKERELVAAIRLSGGSTYYADSVKGRFTSSRDNAKNTVYLQMNSLKPEDTAVYYCAARQIITKFYTSNGVSYYYWGQGTQETVSS,high polyreactivity
4,QVQLVESGGGLVQAGGSLRLSCAASGSTFNLYAMGWYRPAPGKERELVAAISRGGSTYYADSVKGRFTISRDNAKNTVYLQMNSLKPEDTAVYYCAARSWYDRYPYYSWGQGTQVTVSS,high polyreactivity
5,QVQLVESGGGLDQAGGSLRLICAASGSTFISNVMGWYRPAPGKERELVAAITRSSGRTYYADSVKGRFTISRDNAKNTVYLQMNSLKPEDTAVYYCAARPRGRGVDYWGQGTQVTVSS,high polyreactivity
6,QVQLVESGGGLVQAGGSLRVSCASSGSTFVSYAMVWYRQAPGKERELVASISGSDGRTYYADSVKGRFTISRDNAKNTVYLQMKSLNPEDTAVYYCAKRYWRHPVFYLYDYWVQGTQVTVSS,high polyreactivity
7,QVQLVESGGGLVQAGGSLRLSCAASGFTFIHYGMGWYRQAPGKERELVAAISSRGGRTYYADSVKGRFTISRDNAKNTVYLQMNSLKPEDTAVYYCNRDYAVISYGEYDSWGQGTQVTVSS,high polyreactivity
8,QVQLVESGGGLVQEGGSLRLSCAASGRTFVPYAMGWYRQAPGKERELVAAISRSGGRTYYADSVKGRFTLSRDNAKNTVYLQMKSLKPEDTAVYYCAARYYSEPNAYYYWGQGTQVSVSS,high polyreactivity
9,QVQLVESGGGLVQAGGSLRLSCAASGSIFHLYAMGWYRQAPGKEREFVAAISSSGGRTYYADSVKGRFTISRDNAKNTVYLQMNSLKPEDTAVYYCATAEQYGTKLRQVSYQYDYWGHGTQVTVSS,low polyreactivity
10,QVQLVESGGGLVQAGGSLRLSCAASGRIFGYNSMGWYRQAPGKERELVAAIRRSGGRTFYADSVKGRFTLSRDNAKNTVYLQMNRLKPEDTAVYYCAVRGPGTSTYWYHEYEYWGQGTQVTVSS,high polyreactivity
11,QVQLVDSGGGLVQAGGRLLLSCSDSGINIPYYAMGWYRQAPGKERELVASISYDGTSSYYADSVKGRFTISRDNAKNTVYLHLNSLKPEDTAVYYCAPVPWWPRASYSMDYWGQGTQVTLSS,low polyreactivity
12,QVQLVESGGGLVQAGGSLRLSCAASGSTYYTYAMGWYRQAPGKERELVAAISWSGGTTYYADSVKGRFTISRDNAKNTVSLQMNSLKPEATAVYYCASDRDGILKANVYWGQCTQVTVSS,low polyreactivity
13,QVQLVESGGGLVQAGGSLRLSCAAAGLTFQPYVLGWYRQAPGKERELVAAISVRTTRTYYADSVKGRFTISRDNAKNTVYLQMNSLKPEDTAVYYCNVSGVLYPFVSYDYWGQGTHVTVSS,low polyreactivity
14,QVQLVESGGGLVQAGGSLRLSCAASGSTFTSNAMGWYRQAPGKERELVASISGSGGRTYYADSVKGRFTISRDNAKNTVYLQMNSLKPEDTAVYYCARRHSVRTVHGYDYWGQGTQVTVSS,low polyreactivity
15,QVQLVESGGGLVQAGCSLRLSCAASGSTFPYNTMGWYRQAPGKERELVAAITSSAGSTYYADSVKGRFTISRDNAKNTVYLQMNSLKPDDTAVYYCAADYIVWKGSNSYYYAGYYYWGQGTQVTVSS,low polyreactivity
16,QFQLVESGGGLVQAGGSLRLSCAASGITFGWYAMGWYRKATGKETELVASISSSGSTNYADSVKGRFTISRDNAKNTVYLQMNSLKPEDTAVYYCNKDYLLRQYYIYVIEGDYWGQGTLVTVSS,low polyreactivity
17,QVQLVDSGGGLLQAGGSLRLSCAASGNIFGRYAMGWYRQAPGKEREFVATITYSGGSTYYADSVKGRFTISRDNAKNTVYLQMNSLKPEDTAVYYCAARVGRPSLVAAKYDYWGQGTQVTVSS,high polyreactivity
18,QVQLVETGGGLVQAGGSLRLSCAASGFTFYNNAMGWYGQAPGKERELGAVITSNGGRTYYADSVKGRFTISRDNAKNTVYLQMNSLKPEDTAVYYCAKDYKAMYLYHYRISGGDVDYWGQGTQVTVSS,low polyreactivity
19,QVQLVESGGGLVQAGGILRLSCAASGFTFKANAMGWYRQAPGKERELVAAISRRGSSTYYADSVKGRFTISRDNAKNTVYLQMNSLKPEDTAVYYCNTKPRAGRTKLGYWGQGTQVTVSS,high polyreactivity
20,QVQLVESGGGLVQAGGSLRLSCAASGRTFGGYTMGWYRQAPGKERELVAAINWSGTTYYADSVKGRFTISRDNAKNTVYLQMNSLIPEDTAVYYCAASLVSYYGLARDSVDYWGQGTQVNVSS,low polyreactivity
21,QVQLVESGGGLVQAGGSLRLSCAASGRIFRIYAMGWYRQAPGKERELVARITYSGGSTYYADSVKGRFTISRDNAKNTVYLQMNSLKPEDTAVYFCAADWLGYQYGYWGQGTQVTVSS,low polyreactivity
22,QVQLVESGGGLVQAGGSLRLSSAASGSILGDYGMGWYRQAPGKERELVAAITWNGDSTYYADSVKGRFTISRDNAKNTVYLQMNSLKPEDTAVYYCAADLQDYKYYPWYGYWGQGTQVTVSS,low polyreactivity

row,Sequence,polyreactivity (PSR sort gate)
1,QVQLVESGGGLVQAGGSLRLSCAASGRIFTKYAMGWYRQAPGKERELVAGINWRDGRTYYADSVKGRFTLSRDNAKNTVYLQMISLKPVDTAVYYCAGVSIFGRRWMYYWGQGTQVTVSS,high polyreactivity
2,QVQLVESGGGLVQAGGSLRLSCAASGRIFSYYALGWYRQAPGKERELVAAISSRGGSTYYADSVKGRFTISRDNAKNTVYLQMNSLKPEDTAVYYCNAYVYQVIGHDYWGQGTQVTVSS,high polyreactivity
3,QVQLVESGGGLVQAGGSLRLSCAASGSTFVSNAMGWYRQAPGKERELVATITTSGGSTYYADSVKGRFTISRDNAKNTVYLQMNSLKPEDTAVYYCNADYDFNFIDWVYFLYDYWGQGTQVTVSS,low polyreactivity
4,QVQLVESGGGLVQAGGSLRLSCAASGITLPAYTMGWYRQAPGKERELVAAISWGGTSTYYADSVKGRFTISRDNAKNTVYLQMNSLKPEDTAVYYCNKAYATYPGYDYWGQGTQVTLSS,high polyreactivity
5,QVQLVESGGGLVQAGGSLRLSCGASGSTFDHYAMGWYRQAPGKERELVAAITRSGGSTYYADSVKGRFTISRDNAKNTVYIQMNSLKPEDTAVYYCNARRWITSDYWGQGTQVTVSS,high polyreactivity
6,QVQLVESGGGLVQAGGSLRLSCAASGYIFVRNAMGWSRQAPGKERELVAAISRTDGTTYYADSVKGRFTISRDNAKNTVYLQMNSLIPEDTAVYYCAADYLRAPYYQYEYWGQGTQVTVSS,low polyreactivity
7,QVQLVESGGGLVQAGGSLRLSCAASGFTFNSYAMGWYRQAPGKERELVAAISSSGGRTYYADSVKGRFTISRDNAKNTVYFQMNSLKPEDTAVYYCNAVLVSYYSVGYDYWGQGSQVTVSS,high polyreactivity
8,QVQLVDSGGGLVQAGGSLRLSCAASGSTFSLYAMGWYRQAPGKEREMVASITWGGGSTYADSVKGRFTISRDNAKNTVYLQMNSLKPEDTAVYYCARKFRYRVLYDFAYDHWGLGTQVTVSS,low polyreactivity
9,QVQLVESGGGLVQAGGSLRLSCAASGRTFESNAMGWYRQAPGKERELVAGITSGGITNYADSVKGRFTISRDNAKNTVYLQMNSLKPEDTAVYYCEFYYWGQGTQVTVSS,low polyreactivity
10,QVQLVESGGGLVQAGGSLRLSCAASGSIFYYGMGWYRQAPGKERELVAAITRGGSTYYADSVKGRFTISRDNAKNTVYLQMNSLKPEDTAVYYCATGPLVYYSARYSSYVYPYDYWGQGTQVTVSS,low polyreactivity
11,QVQLVESGGGLVQAGGSLRLSCAASGGTFWIYAMGWYRQAPGKERELVAGISHGDSTYYADSVKGRFTISRDNAKNTVYLQMNSLKPEDTAVYYCARDYRNPPFAYEYWGQGTQVTVSS,low polyreactivity
12,QVQLVESGGGLVQAGGSLRLSCAASGFIFDKYAMGWYRQAPGKERELVATITSGGSTYYADSVKGRFTISRDNAKNTVYLQMNSLKPEDTAVYYCAALDYGYRWYRYYYWGQGTQVTVSS,high polyreactivity
13,QVHLVESRGGLVQAGGSLRLSCAASGFIFRWYAMGCYRQAPGKERELVAAISSSSGSTYYADSVKGRFTISRDNAKNTVYLQMNSLKPEDTAVYYCAAESNRRFEGEYWGQGTQVTVSS,high polyreactivity
14,QDQLVESGGGLVQAGGSLRLSCAASGSIFAGNVMGWYRQAPGKERELVAAISRRGGRTYYADSVKGRFTISRDNAKNTVYLQMNSLKPEDTAVYYCAARRDPVLGKSDYWGQGTLVTVSS,high polyreactivity
15,QVQLVESGGCIVQAGGSLRLSCAASGLIFGPYAMGWYRQAPGKERELVAAISARGGSTYYADSVKGRFTISRDNAKNTVYLQMNSLKPEDTAVYYCAARQYSVNTHYGYNYWGQGTQVTVSS,high polyreactivity
16,QVQLVESGGGFVQAGGSLRLSCAASGRTFPRYAMGWYRQAPGKERELVAAITRGGGTNYADSVKGRFTISRDNAKNTVYLQMNSLKPEDTAVYYCNRALLYRGYKFDYWGQGTHVTVSS,high polyreactivity
17,QVQLVDSGGGLVQAGGSLRLSCASSGFIFQYNTMGWSRQAPGKERELVAVITRTGSTNYADSVKGRFTISRDNANNTVYLQMNSLKPEDTAVYYCATSVYSRPRKPRYYYWGQGTQLTVSS,high polyreactivity
18,QVQLVESGGGLVQAGGSLRLSCAASGRIFPSYAMGWYRQAPGKERELVAAISSSGGRTYYADSVKGRFTISRDNAKNTVYLQRNSLKPEDSAVYYCAARWVQYGVRYDYWGHGTQVTVSS,high polyreactivity
19,QFQLVESGGGLVQAGGSLRLSCAASGFIFTRYVMGWYRQAPGKERELVAAINWSGDSTYYADSVKGRFTISRDYAKNTVYLQLNSLKPEDTAVYYCNADYGWVDTYTNYDYWGQGTQVTVSS,low polyreactivity
20,QVQLVESGGGLVQAGGSLRLSCAASGSIIKPYAMGWYRQAPGKERDLVAAIRSSGGRTNYADSVKGRFTISRDNAKNTVYLQMNSLKPEDTAVYYCAALVRVTGTYYTKYDFWGQGNQVTVSS,high polyreactivity
21,QVQLVESGGGLVQAGGSLRLSCAASGSTFAYYAMGLYRQAPGKERELVASISWRGGSTYYADSVKGRFTISRDNAKNTVYLQMNSLKPEVTAVYYCAAGRFYKWSRSQEYDYWGQGTQVTVSS,low polyreactivity
